Columns and labels:
[1] = Dynamic light scattering (DLS) particle radius; type: physicochemical; conditions: for Rh* (most common radius measured at 90° using DLS): γ-PGA alone or peptide/γ-PGA NPs 1:1 w/w, n = 9; for Rh: n = 4
Method: (§1) NPs diameter was measured by dynamic light scattering (DLS) (CGS-3 LSE-5003, ALV, Langen, Germany) at different angles of the detector (90, 60 and 30 degrees) and by Small angle X-ray scattering (SAXS) (SAXLAB's GANESHA 300 XL, Skovlunde, Denmark) Sealed Tube Generator: Cu-Ka 0.154 nm (Genix 3D) equipped with a 2D detector (Pilatus 300k). Surface charge was measured by Zetasizer (Zetasizer Nano ZS, Malvern, Worcestershire, UK) and subsequently the data was analyzed using the Smoluchowski model.

[2] = Zeta potential / surface charge by Zetasizer (Smoluchowski model); type: physicochemical; conditions: for ξ zeta potential: n = 4
Method: as §1

[3] = Circular dichroism (CD) secondary structure; type: physicochemical; conditions: for change of CD pattern on mixing with γ-PGA: peptide:γ-PGA 0.25:0.25 mg/ml
Method: CD measurements were performed to characterize secondary structure of peptides in the NPs solution. Spectra in the range of 190-260 nm were recorded at room temperature on CD spectropolarimeter (J-715, Jasco, Tokyo, Japan), using a 1-mm quartz cuvette.

[4] = system: Saos2 cells; assay: XTT cell viability (cytotoxicity); type: cell-based; conditions: Homo sapiens, SAOS-2; Saos2 cultures; results not shown
Method: The cytotoxicity of coated nanoparticles was assessed by monitoring the viability of Saos2 cells in presence of the NPs. All cell cultured were carried in air supplemented with 5% CO2 at 37° C. In 24 wells plate, 3*10^4 cells/well were seeded, in DMEM complete medium and cultured for 4 h. The cells were supplemented with different concentrations of LND-NPs, control NPs, or free LND and cultured overnight. Cells viability was determined by XTT assay following the manufacturer instructions (Life Technologies, California, USA). The XTT solution was added to the wells and cells were incubated for 4 hr after which the absorbance of the samples was measured at 490 nm, by a microplate-reader (BioTek instruments, Winoosky, Vt.). Cells viability is reported as percentage compared to untreated cultured cells.

[5] = γ-PGA alone or peptide/γ-PGA NPs 1:1 w/w, n = 9
[6] = NPs coated with PFK 0.1 mg/ml, single or repeated addition
[7] = PFK alone or PFK/γ-PGA NPs at different PFK:γ-PGA weight ratios, n = 3
[8] = γ-PGA/PFK NPs coated with the peptide, coating solution 0.1 mg/ml
[9] = γ-PGA/PFK NPs coated with the peptide, coating solution 0.5 mg/ml

| Compound | Rh* (most common radius measured at 90° using DLS) [1] | ζ zeta potential [2, 5] | change of CD pattern on mixing with γ-PGA [3] | Rh [1, 6] | Radius (Rh, DLS at 90°) [1, 7] | Rh [1, 8] | Rh [1, 9] | ξ zeta potential [2, 6] | ζ zeta potential [2, 7] | ξ zeta potential [2, 8] | ξ zeta potential [2, 9] | θ215/θ203 (β-sheet relative to unfolded) as function of pH ([3]; PFK alone or 1:1 w/w with γ-PGA) | IC50 [4] |
| --- | --- | --- | --- | --- | --- | --- | --- | --- | --- | --- | --- | --- | --- |
| KFFFKKFFKFFKK [rFK, scrambled order control of FK] | 6.45 ± 1.2 nm | −38.78 ± 3.92 mV | primarily the Phe-Phe side chain type of absorption |  |  |  |  |  |  |  |  |  |  |
| FK(FK)5F (FKFKFKFKFKFKF) [free termini version of the amphiphilic peptide] | 7.41 ± 1.7 nm | −43.71 ± 9.2 mV | most pronounced shift to β-sheet structure |  |  |  |  |  |  |  |  |  |  |
| PK(FK)5P (PKFKFKFKFKFKP) [PFK, proline capped amphiphilic cationic 13-residue peptide] | 11.4 ± 2 nm | −49.3 ± 2 mV | most pronounced shift to β-sheet structure | 9.8 ± 0.23 nm | Non spherical NPs | 9.8 ± 0.23 nm | 52.2 ± 50.63 nm | −33.52 ± 3.11 mV | 11.6 ± 5 mV | −33.52 ± 3.11 mV | −35.42 ± 4.5 mV | steep increase in θ215/θ203 value at pH˜8 |  |
| O=C(O)c1nn(Cc2ccc(Cl)cc2Cl)c2ccccc12 [free LND, Lonidamine] |  |  |  |  |  |  |  |  |  |  |  |  | 1.3 mM |
| KFFPKKPFKFFKK [rPFK, scrambled order control of PFK] | 9.57 ± 6 nm | −25.26 ± 8.79 mV | almost no change in its CD pattern |  |  | 11.04 ± 7.77 nm | 9.72 ± 1.03 nm |  |  | −37.26 ± 7.03 mV | −36.0 ± 2.69 mV |  |  |
